Paper PMC6125123

Target: HA-K^b (H-2K^b heavy chain with an N-terminal HA tag, no GFP) (mus musculus)
Assay: two-hybrid antibody micropattern assay (co-capture on live cells, confocal fluorescence microscopy); HA-tagged bait captured on printed anti-HA (12CA5) micropatterns on glass; GFP-tagged prey read out; co-transduced STF1 cells, 25°C overnight, then shifted to 37°C for 3-4 hr to dissociate …; no peptide

HA-K^b (H-2K^b heavy chain with an N-terminal HA tag, no GFP) (mus musculus), sequence (P01901 22-369): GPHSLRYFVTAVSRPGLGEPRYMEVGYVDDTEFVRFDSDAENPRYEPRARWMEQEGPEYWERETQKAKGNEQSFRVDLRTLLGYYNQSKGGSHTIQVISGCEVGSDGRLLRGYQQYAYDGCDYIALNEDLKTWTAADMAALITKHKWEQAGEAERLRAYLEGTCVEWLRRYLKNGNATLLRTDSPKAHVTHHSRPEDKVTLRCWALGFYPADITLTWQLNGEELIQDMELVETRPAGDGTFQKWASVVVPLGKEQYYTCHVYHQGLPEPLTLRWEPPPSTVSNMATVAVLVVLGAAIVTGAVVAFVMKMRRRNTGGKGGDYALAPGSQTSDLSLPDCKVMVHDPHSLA

ratio of GFP fluorescence intensity on pattern elements over total fluorescence intensity (background 1.1): 1.3
Substance: K^b-GFP (H-2K^b heavy chain with GFP fused to the cytoplasmic tail, no HA tag) (natural protein)
